Data taken from patent US8975044B2, “Polynucleotides encoding for frizzled-binding agents and uses thereof” (OncoMed Pharmaceuticals, Inc., priority 2008, dated 2015).
“Also recorded” adds a separate entry of the source.

Assays:
FZD8 = molecular target: T1, FZD8 (Homo sapiens, UniProt Q9H461); assay: Biacore affinity to recombinant Fzd Fc protein; type: binding; conditions: IgG antibody; Fzd Fc immobilized on CM5 Biacore chip
T1 construct: Fc
T1 sequence (Q9H461 28-157 limits assumed): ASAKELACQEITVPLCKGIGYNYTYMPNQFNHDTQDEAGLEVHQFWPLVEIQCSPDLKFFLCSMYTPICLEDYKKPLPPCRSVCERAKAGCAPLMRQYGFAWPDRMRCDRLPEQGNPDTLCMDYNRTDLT
Protocol: The KDs of 18R8 and 18R5 antibodies were determined using the Biacore 2000 system from Biacore Lifescience (GE Healthcare). Specifically, purified anti-Fzd7 antibodies were serially diluted in 2-fold increments from 100 to 0.78 nM in HBS-P (0.01 M HEPES pH 7.4, 0.15 M NaCl, 0.005% v/v Surfactant P20). Each dilution was tested against recombinant Fzd Fc proteins immobilized onto a CM5 Biacore chip. The association and dissociation rates were measured and KD values determined using the Biaevaluation software program (Table 5, below).

Wnt target genes [1] = assay: qPCR of Wnt target genes in tumor of OMP-PN13-bearing mice; type: in vivo, NOD/SCID mice
Protocol: (§1) Frozen OMP-PN13 tumor cells that have been passaged twice in mice were obtained from Oncomed's tumor bank. They were thawed and injected subcutaneously into the left flank of NOD/SCID mice immediately following thawing. ˜ 25,000 viable cells were injected per animal. The mice were monitored weekly for tumor growth. After their onset, the size of the tumors was measured once weekly by caliper. 200-300 mm^3 tumor-bearing mice were dispatched in treatment groups that each contained 5 animals. […] Ab treatment was initiated the day after randomization. LZ1 was used as the negative control Ab. 3 doses of 10 mg/kg of Ab were administered via intra-peritoneal injection over a 12-day period. Mice were euthanized 24 hours after the last injection. Tumor, duodenum and liver were harvested.
(§2) Total RNAs were also extracted from tumor, duodenum and liver for Wnt target gene expression analyses using qPCR.
Tissues were immediately transferred into RNAlater (QIAGEN) at the time of harvest. RNA was extracted using the QIAGEN RNeasy for Fibrous Tissue mini kit according to the manufacturer instructions. […] All 5 tumors of each treatment group were analyzed. […] ABI SDS 2.2.1 software was used to analyze the data and calculate DeltaCt values that were converted into relative quantities. […] Fold inhibition factors were then calculated relative to control antibody (LZ1).

Wnt target genes [2] = assay: qPCR of Wnt target genes in liver of OMP-PN13-bearing mice; type: in vivo, NOD/SCID mice
Protocol: as §1, §2
Tissues were immediately transferred into RNAlater (QIAGEN) at the time of harvest. RNA was extracted using the QIAGEN RNeasy for Fibrous Tissue mini kit according to the manufacturer instructions. 50 ng total RNA were submitted to gene expression analyses using ABI one-step RT-PCR protocol and reagents. GusB gene expression was used as endogenous control. Triplicates were setup for each sample. All 5 tumors of each treatment group were analyzed. ABI 7900 TaqMan machine was used to run the experiments. ABI SDS 2.2.1 software was used to analyze the data and calculate DeltaCt values that were converted into relative quantities. The triplicate values of all 5 tumors were averaged for each treatment group. Fold inhibition factors were then calculated relative to control antibody (LZ1).

Muc16 = Muc16 immunohistochemistry on treated OMP-PN13 tumors; type: in vivo, NOD/SCID mice; conditions: 3 doses of 10 mg/kg IP over 12 days; vs LZ1
Protocol: as §1
Tumor tissues were fixed in formalin for paraffin embedding and sectioning. Muc16 detection was performed by immunohistochemical (1HC) to monitor the appearance of Mucin-producing cells. Mucins are specific for a subtype of differentiated cells in the pancreas, and as such are used as differentiation markers in the tumor model.
Formalin-fixed, paraffin-embedded (FFPE) sections were de-parrafinized. The slides were first de-parrafinized by sequential treatment with xylene twice for 5 minutes each. […]

Wnt signaling pathway = assay: 8xTCF luciferase reporter assay in STF293 cells with Wnt3A-conditioned medium; type: cell-based, human; conditions: range of antibody concentrations, 18 hours
Protocol: STF293 cells were cultured in DMEM supplemented with antibiotics and 10% FCS. The STF293 cells are 293 cells in which the following have been stably integrated: (1) an 8×TCF Luc reporter vector containing […] of the TCF binding site linked to a promoter upstream of a firefly luciferase reporter gene to measure canonical Wnt signaling levels (Gazit et al., 1999, Oncogene 18:5959-66) and (2) a Renilla luciferase reporter (Promega; Madison, Wis.) as an internal control for transfection efficiency. The cells were added to cultures plates. The FZD antibodies to be tested (or no antibodies) were added. The cells were then incubated in the presence or absence of Wnt3A-conditioned medium that had been prepared from L cells that stably express Wnt3a (ATCC CRL-2647) or control conditioned media from L cells not overexpressing Wnt3A (ATCC cell line CRL-2648). After overnight incubation, luciferase levels were measured using a dual luciferase assay kit (Promega; Madison, Wis.) with firefly luciferase activity normalized to Renilla luciferase activity.
The ability of the 18R8 and 18R5 antibodies to inhibit Wnt-induced pathway activation was thus determined. STF293 cells were treated with different concentrations of 18R8 or 18R5 IgG antibodies and Wnt3A-conditioned medium was added. The cells were assayed 18 hours later using the dual luciferase assay kit.

[3] = fold relative to control antibody LZ1, 3 doses of 10 mg/kg over 12 days

Molecule | Kd (FZD8) [nM] | inhibition of Wnt target gene in tumor (Wnt target genes [1]; relative to LZ1) [×] | Liver GluI (Wnt target genes [2]; [3]) [x] | Liver Lect2 (Wnt target genes [2]; [3]) [x] | Liver Lgr5 (Wnt target genes [2]; [3]) [x] | inhibition of Wnt target gene in liver (Wnt target genes [2]; relative to LZ1) [×] | Muc16 staining (Muc16) | inhibition of Wnt3A-induced TCF signaling (Wnt signaling pathway) | tumor Axin2 (Wnt target genes [1]; [3]) [x] | Liver Axin2 (Wnt target genes [2]; [3]) [x] | Liver Rhbg (Wnt target genes [2]; [3]) [x]
18R5: human anti-FZD antibody; VH SEQ ID NO:10 (as 18R8), VL SEQ ID NO:14; binds FZD1, 2, 5, 7, 8 (antibody, V domains shown, 18R5/18R8 heavy chain variable region (VH); 18R5 light chain variable region (VL)) VH: EVQLVESGGGLVQPGGSLRLSCAASGFTFSHYTLSWVRQAPGKGLEWVSVISGDGSYTYYADSVKGRFTISSDNSKNTLYLQMNSLRAEDTAVYYCARNFIKYVFANWGQGTLVTVSS VL: DIELTQPPSVSVAPGQTARISCSGDNIGSFYVHWYQQKPGQAPVLVIYDKSNRPSGIPERFSGSNSGNTATLTISGTQAEDEADYYCQSYANTLSLVFGGGTKLTVLG | 5.8 | 2.3 | −19 | −8 | −26 | 8 | higher levels of staining | Greater inhibition; also recorded: inhibit Wnt signaling |  |  | 
18R8: human anti-FZD antibody from phage display; VH SEQ ID NO:10, VL SEQ ID NO:12; binds FZD1, 2, 5, 7, 8 (antibody, V domains shown, 18R5/18R8 heavy chain variable region (VH); 18R8 light chain variable region (VL)) VH: EVQLVESGGGLVQPGGSLRLSCAASGFTFSHYTLSWVRQAPGKGLEWVSVISGDGSYTYYADSVKGRFTISSDNSKNTLYLQMNSLRAEDTAVYYCARNFIKYVFANWGQGTLVTVSS VL: DIELTQPPSVSVAPGQTARISCSGDKLGKKYASWYQQKPGQAPVLVIYEKDNRPSGIPERFSGSNSGNTATLTISGTQAEDEADYYCSSFAGNSLEVFGGGTKLTVLG | 29.3 |  |  |  |  |  |  | inhibit Wnt signaling |  |  | 
44R24: anti-FZD5/8 IgG antibody, VH SEQ ID NO:85, VL SEQ ID NO:86; ATCC deposit no. PTA-10311 (antibody, V domains shown, 44R24 VH; 44R24 VL, ATCC deposit no; PTA-10311) VH: EVQLVESGGGLVQPGGSLRLSCAASGFTFSSYYITWVRQAPGKGLEWVSTISYSSSNTYYADSVKGRFTISRDNSKNTLYLQMNSLRAEDTAVYYCARSIVFDYWGQGTLVTVSS VL: DIELTQPPSVSVAPGQTARISCSGDALGNRYVYWYQQKPGQAPVLVIPSGIPERFSGSNSGNTATLTISGTQAEDEADYYCGSWDTRPYPKYVFGGGTKLTVLG |  |  |  |  |  |  | slightly higher than in the LZ1-treated tumors |  | −1.8 | −2.4 | −1.9
